Test results published in PMC5409509.

Molecular target: Yeast wild-type Mlh1-Mlh3 (yeast (S. cerevisiae)) (UniProt P38920)

B1: Yeast wild-type Mlh1-Mlh3 (complex)
chain 1: MSLRIKALDASVVNKIAAGEIIISPVNALKEMMENSIDANATMIDILVKEGGIKVLQITDNGSGINKADLPILCERFTTSKLQKFEDLSQIQTYGFRGEALASISHVARVTVTTKVKEDRCAWRVSYAEGKMLESPKPVAGKDGTTILVEDLFFNIPSRLRALRSHNDEYSKILDVVGRYAIHSKDIGFSCKKFGDSNYSLSVKPSYTVQDRIRTVFNKSVASNLITFHISKVEDLNLESVDGKVCNLNFISKKSISPIFFINNRLVTCDLLRRALNSVYSNYLPKGNRPFIYLGIVIDPAAVDVNVHPTKREVRFLSQDEIIEKIANQLHAELSAIDTSRTFKASSISTNKPESLIPFNDTIESDRNRKSLRQAQVVENSYTTANSQLRKAKRQENKLVRIDASQAKITSFLSSSQQFNFEGSSTKRQLSEPKVTNVSHSQEAEKLTLNESEQPRDANTINDNDLKDQPKKKQKLGDYKVPSIADDEKNALPISKDGYIRVPKERVNVNLTSIKKLREKVDDSIHRELTDIFANLNYVGVVDEERRLAAIQHDLKLFLIDYGSVCYELFYQIGLTDFANFGKINLQSTNVSDDIVLYNLLSEFDELNDDASKEKIISKIWDMSSMLNEYYSIELVNDGLDNDLKSVKLKSLPLLLKGYIPSLVKLPFFIYRLGKEVDWEDEQECLDGILREIALLYIPDMVPKVDTSDASLSEDEKAQFINRKEHISSLLEHVLFPCIKRRFLAPRHILKDVVEIANLPDLYKVFERC
chain 2: MSQHIRKLDSDVSERLKSQACTVSLASAVREIVQNSVDAHATTIDVMIDLPNLSFAVYDDGIGLTRSDLNILATQNYTSKIRKMNDLVTMKTYGYRGDALYSISNVSNLFVCSKKKDYNSAWMRKFPSKSVMLSENTILPIDPFWKICPWSRTKSGTVVIVEDMLYNLPVRRRILKEEPPFKTFNTIKADMLQILVMHPMISLNVQYTDKLRINTEVLFRSKNITEGLTKHQQMSQVLRNVFGAIIPPDMLKKVSLKFNEYQIEGIISKMPVGLKDLQFIYINGRRYADSAFQGYVDSLFQAQDFGEKGMSLLKTKSVGKPYRSHPVFILDVRCPQTIDDLLQDPAKKIVKPSHIRTIEPLIVKTIRSFLTFQGYLTPDKSDSSFEIVNCSQKTATLPDSRIQISKRNQVLNSKMKIARINSYIGKPAVNGCRINNSTINYEKIKNIRIDGQKSRLRNKLSSRPYDSGFTEDYDSIGKTITDFSISRSVLAKYEVINQVDKKFILIRCLDQSIHNCPLLVLVDQHACDERIRLEELFYSLLTEVVTGTFVARDLKDCCIEVDRTEADLFKHYQSEFKKWGIGYETIEGTMETSLLEIKTLPEMLTSKYNGDKDYLKMVLLQHAHDLKDFKKLPMDLSHFENYTSVDKLYWWKYSSCVPTVFHEILNSKACRSAVMFGDELTRQECIILISKLSRCHNPFECAHGRPSMVPIAELK
B1 gave an endonuclease activity on circular dsDNA: ratio of Mlh1-Mlh3 to 2.7 kb plasmid at the optimum of activity (Mlh1-Mlh3 per 2.7 kb plasmid) of 100.
